Experimental data from patent US20150274826A1 (published 2015).

How the values were obtained:
[1] = target: T1, rat CD47 (rat, UniProt P97829 19-303); test: FACS binding; rat RBCs
T1 chain: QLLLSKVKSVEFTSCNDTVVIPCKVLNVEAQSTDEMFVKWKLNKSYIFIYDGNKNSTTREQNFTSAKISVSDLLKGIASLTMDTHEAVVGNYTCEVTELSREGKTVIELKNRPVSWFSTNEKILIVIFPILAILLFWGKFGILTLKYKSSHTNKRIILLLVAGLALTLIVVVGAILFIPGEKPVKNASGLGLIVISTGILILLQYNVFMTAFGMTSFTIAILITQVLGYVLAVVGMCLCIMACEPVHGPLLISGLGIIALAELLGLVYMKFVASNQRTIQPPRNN

[2] = target: human CD47 (human, UniProt Q08722 19-323); test: FACS binding; human RBCs
Chain of human CD47 (Q08722 19-323): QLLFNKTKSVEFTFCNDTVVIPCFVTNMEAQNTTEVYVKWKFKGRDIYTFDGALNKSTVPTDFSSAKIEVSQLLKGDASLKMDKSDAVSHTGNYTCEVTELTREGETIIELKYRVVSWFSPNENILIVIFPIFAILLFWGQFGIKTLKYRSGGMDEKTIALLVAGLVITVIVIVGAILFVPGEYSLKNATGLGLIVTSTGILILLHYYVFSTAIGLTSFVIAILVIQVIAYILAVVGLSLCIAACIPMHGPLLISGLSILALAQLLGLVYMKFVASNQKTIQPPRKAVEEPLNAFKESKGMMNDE

[3] = target: T2, mouse CD47 (mouse, UniProt Q61735 19-303); test: FACS binding; mouse RBCs
T2 chain: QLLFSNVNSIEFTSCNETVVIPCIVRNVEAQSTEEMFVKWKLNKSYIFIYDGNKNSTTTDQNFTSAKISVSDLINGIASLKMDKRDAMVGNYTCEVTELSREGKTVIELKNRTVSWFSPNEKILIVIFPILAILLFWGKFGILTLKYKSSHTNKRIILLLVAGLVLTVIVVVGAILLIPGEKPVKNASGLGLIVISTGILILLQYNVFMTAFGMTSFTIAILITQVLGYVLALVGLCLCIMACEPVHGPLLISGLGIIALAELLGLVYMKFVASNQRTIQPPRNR

[4] = target: T3, pig CD47 (pig, UniProt Q9GKE8 19-303); test: FACS binding; porcine RBCs
T3 chain: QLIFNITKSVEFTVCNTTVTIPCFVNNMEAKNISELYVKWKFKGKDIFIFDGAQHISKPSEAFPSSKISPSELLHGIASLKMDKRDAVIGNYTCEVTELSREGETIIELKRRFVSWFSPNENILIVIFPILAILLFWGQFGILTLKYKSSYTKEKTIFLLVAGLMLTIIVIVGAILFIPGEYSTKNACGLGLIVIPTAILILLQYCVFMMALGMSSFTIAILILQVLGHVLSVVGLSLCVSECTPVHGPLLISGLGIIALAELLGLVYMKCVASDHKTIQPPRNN

B1: Clone 1.1 (hum01 IgG1 N297Q) (antibody)
heavy: QVQLQESGPGLVKPSQTLSLTCTVSGYTFTNYYVFWVRQARGQRLEWIGDINPVNGDTNFNEKFKNRVTISADKSISTAYLQWSSLKASDTAMYYCARGGYTMDYWGQGTLVTVSSASTKGPSVFPLAPSSKSTSGGTAALGCLVKDYFPEPVTVSWNSGALTSGVHTFPAVLQSSGLYSLSSVVTVPSSSLGTQTYICNVNHKPSNTKVDKKVEPKSCDKTHTCPPCPAPELLGGPSVFLFPPKPKDTLMISRTPEVTCVVVDVSHEDPEVKFNWYVDGVEVHNAKTKPREEQYQSTYRVVSVLTVLHQDWLNGKEYKCKVSNKALPAPIEKTISKAKGQPREPQVYTLPPSR
light: DIVMTQTPLSLPVTPGEPASISCRSSQSLVHSNGNTYLHWYQQKPGKAPKLLIYKVSYRFSGVPDRFSGSGSGTDFTLKISRVEAEDVGVYYCSQNTHVPRTFGQGTKVEIKRTVAAPSVFIFPPSDEQLKSGTASVVCLLNNFYPREAKVQWKVDNALQSGNSQESVTEQDSKDSTYSLSSTLTLSKADYEKHKVYACEVTHQGLSSPVTKSFNRGEC
For B1, the EC50 [1] was 0.258 µg/mL, the EC50 [2] was 0.216 µg/mL and the EC50 [3] was 0.265 µg/mL. For the same binder, the EC50 [4] was 0.0309 µg/mL.

B2: Clone 1 (pVxK7b-037-hum01-LC / pVxK7b-037-hum01-HC) (antibody)
heavy: not shown
light: DIVMTQTPLSLPVTPGEPASISCRSSQSLVHSNGNTYLHWYQQKPGKAPKLLIYKVSYRFSGVPDRFSGSGSGTDFTLKISRVEAEDVGVYYCSQNTHVPRTFGQGTKVEIKRTVAAPSVFIFPPSDEQLKSGTASVVCLLNNFYPREAKVQWKVDNALQSGNSQESVTEQDSKDSTYSLSSTLTLSKADYEKHKVYACEVTHQGLSSPVTKSFNRGEC
B2 showed an EC50 [1] of 0.0479 µg/mL, an EC50 [2] of 0.184 µg/mL and an EC50 [3] of 0.0657 µg/mL. It also gave an EC50 [4] of 0.014 µg/mL.

B3: Clone 13 (pVxK7b-037-hum13-LC / pVxK7b-037-hum13-HC) (antibody)
heavy: not shown
light: DIVMTQTPLSLPVTPGEPASISCRSSQSLVHSNGNTYLHWYQQKPGKAPKLLIYKVSYRFSGVPDRFSGSGSGTDFTLKISRVEAEDVGVYYCSQNTHVPRTFGQGTKVEIKRTVAAPSVFIFPPSDEQLKSGTASVVCLLNNFYPREAKVQWKVDNALQSGNSQESVTEQDSKDSTYSLSSTLTLSKADYEKHKVYACEVTHQGLSSPVTKSFNRGEC
B3 showed an EC50 [1] of 0.0461 µg/mL, an EC50 [2] of 0.12 µg/mL and an EC50 [3] of 0.0418 µg/mL. It also gave an EC50 [4] of 0.0152 µg/mL.

B4: Clone 13.1 (hum13 IgG1 N297Q) (antibody)
heavy: EVQLVQSGAEVKKPGESLRISCKGSGYTFTNYYVFWIRQSPSRGLEWLGDINPVNGDTNFNEKFKNRVTITADKSTSTAYMELSSLRSEDTAVYYCARGGYTMDYWGQGTLVTVSSASTKGPSVFPLAPSSKSTSGGTAALGCLVKDYFPEPVTVSWNSGALTSGVHTFPAVLQSSGLYSLSSVVTVPSSSLGTQTYICNVNHKPSNTKVDKKVEPKSCDKTHTCPPCPAPELLGGPSVFLFPPKPKDTLMISRTPEVTCVVVDVSHEDPEVKFNWYVDGVEVHNAKTKPREEQYQSTYRVVSVLTVLHQDWLNGKEYKCKVSNKALPAPIEKTISKAKGQPREPQVYTLPPSR
light: DIVMTQTPLSLPVTPGEPASISCRSSQSLVHSNGNTYLHWYQQKPGKAPKLLIYKVSYRFSGVPDRFSGSGSGTDFTLKISRVEAEDVGVYYCSQNTHVPRTFGQGTKVEIKRTVAAPSVFIFPPSDEQLKSGTASVVCLLNNFYPREAKVQWKVDNALQSGNSQESVTEQDSKDSTYSLSSTLTLSKADYEKHKVYACEVTHQGLSSPVTKSFNRGEC
Work on B4 yielded an EC50 [1] of 0.0835 µg/mL, an EC50 [2] of 0.163 µg/mL and an EC50 [3] of 0.0673 µg/mL. The EC50 [4] was 0.031 µg/mL.
